Experimental data published in the supplement of paper PMC7125110.
± gives the standard error. For part of these data: Variants at the floor of the assay were thinned out.

B1: glmS ribozyme (parent)
chain: AUAAAAGCGCCAGAACUACAGAAAUGUAGUUGACGAGGAGGAGGUUUAUCGAAUUUUCGGCGGAUGCCUCCAAA

Tests used:
Conditions in all cases: with glucosamine-6-phosphate
glucosamine-6-phosphate [1] = variants of: B1; test: kcat; higher = faster cleavage; RNA array
Method in brief: (§1)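 Over ~14 h at 37 °C, tiles were imaged as glucosamine-6-phosphate (40 μM to 10 mM) in HEPES/KCl/Mg(OAc)2 buffer flowed across sequenced MiSeq chips. The chips carried barcoded ribozyme variants transcribed in situ by E. coli RNA polymerase and tracked with a hybridised Cy3 probe. After normalisation to baseline and to non-cleaving reference variants, one- or two-exponential decay fits of per-tile medians gave kobs. kcat and KM followed from weighted Michaelis–Menten fits across concentrations.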

glucosamine-6-phosphate [2] = variants of: B1; test: self-cleavage kobs at 40 uM GlcN6P; higher = faster cleavage; RNA array
Method in brief: as §1

glucosamine-6-phosphate [3] = variants of: B1; test: self-cleavage kobs at 160 uM GlcN6P; higher = faster cleavage; RNA array
Method in brief: as §1

glucosamine-6-phosphate [4] = variants of: B1; test: self-cleavage kobs at 640 uM GlcN6P; higher = faster cleavage; RNA array
Method in brief: as §1

glucosamine-6-phosphate [5] = variants of: B1; test: self-cleavage kobs at 2500 uM GlcN6P; higher = faster cleavage; RNA array
Method in brief: as §1

glucosamine-6-phosphate [6] = variants of: B1; test: self-cleavage kobs at 10000 uM GlcN6P; higher = faster cleavage; RNA array
Method in brief: as §1

glucosamine-6-phosphate [7] = variants of: B1; test: KM; higher = weaker cofactor use; RNA array
Method in brief: as §1

Variant | kcat (glucosamine-6-phosphate [1]) [s⁻¹] | self-cleavage kobs at 40 uM GlcN6P (glucosamine-6-phosphate [2]) [s⁻¹] | self-cleavage kobs at 160 uM GlcN6P (glucosamine-6-phosphate [3]) [s⁻¹] | self-cleavage kobs at 640 uM GlcN6P (glucosamine-6-phosphate [4]) [s⁻¹] | self-cleavage kobs at 2500 uM GlcN6P (glucosamine-6-phosphate [5]) [s⁻¹] | self-cleavage kobs at 10000 uM GlcN6P (glucosamine-6-phosphate [6]) [s⁻¹] | KM (glucosamine-6-phosphate [7]) [µM]
C10G A52U | < 1e-05 | < 1e-05 | < 1e-05 | < 1e-05 | – | – | –
C10U C71G | 1.65e-05 ± 5.1e-06 | < 1e-05 | – | – | – | – | –
C10U C71U | 3.48e-05 ± 5.8e-06 | < 1e-05 | – | – | 1.75e-05 ± 5.3e-06 | 3.05e-05 ± 5.4e-06 | –
A12C G37A | 0.00391 ± 0.0011 | 8.92e-05 ± 1.1e-05 | 0.000248 ± 4e-05 | 0.000756 ± 0.00011 | 0.00182 ± 0.00028 | 0.00402 ± 0.00063 | 2210 ± 860
C8U C71U | < 1e-05 | – | – | < 1e-05 | – | – | 25 ± 11
C10G A12G A53C G59C | 1.95e-05 ± 6.6e-06 | – | – | – | – | – | –
C11A C71A | 6.72e-05 ± 2.1e-05 | – | – | – | 2.11e-05 ± 9e-06 | 4.87e-05 ± 6.4e-06 | –
C11A C71G | 5.67e-05 ± 6.5e-06 | – | – | – | 4.99e-05 ± 1.2e-05 | 5.95e-05 ± 1.3e-05 | –
C11U U54C | 0.00157 ± 0.00021 | 6.42e-05 ± 1.2e-05 | 0.000204 ± 9.2e-05 | 0.000616 ± 0.00017 | 0.00092 ± 0.00024 | 0.00167 ± 0.00033 | 990 ± 210
C11U U54G | 0.00114 ± 0.00053 | 5.3e-05 ± 1.1e-05 | 0.000153 ± 2.1e-05 | 0.000277 ± 3.9e-05 | 0.000642 ± 9.5e-05 | 0.00164 ± 0.00025 | –
C8A G35U | < 1e-05 | – | – | – | < 1e-05 | < 1e-05 | –
C10U U69C | 2.21e-05 ± 5.7e-06 | – | – | – | – | – | –
C10U U69A | 1.11e-05 ± 3.7e-06 | – | – | – | – | – | –
G9A U49A A52G | < 1e-05 | – | – | – | – | – | –
C11U U30G | 0.00224 ± 0.00076 | 0.0001 ± 1.4e-05 | 0.00018 ± 2.9e-05 | 0.000444 ± 7.4e-05 | 0.00185 ± 0.00033 | 0.00194 ± 0.00021 | –
C11G C67G | 3.76e-05 ± 1.2e-05 | – | – | 5.1e-05 ± 1.3e-05 | – | – | –
C11U A12U U56C | 0.00124 ± 0.00036 | 5.74e-05 ± 1.7e-05 | – | 0.000258 ± 5e-05 | 0.000639 ± 0.00015 | 0.00106 ± 0.00015 | –
C8U C34U G35U C70A | < 1e-05 | < 1e-05 | – | – | – | – | –
G9A G38U | < 1e-05 | – | – | < 1e-05 | – | – | –
C11A U69A | 4.95e-05 ± 1.6e-05 | – | – | 6.89e-05 ± 2.4e-05 | 7.69e-05 ± 2.5e-05 | – | –

Variant | kcat (glucosamine-6-phosphate [1]) [s⁻¹] | self-cleavage kobs at 40 uM GlcN6P (glucosamine-6-phosphate [2]) [s⁻¹] | self-cleavage kobs at 160 uM GlcN6P (glucosamine-6-phosphate [3]) [s⁻¹] | self-cleavage kobs at 640 uM GlcN6P (glucosamine-6-phosphate [4]) [s⁻¹] | self-cleavage kobs at 2500 uM GlcN6P (glucosamine-6-phosphate [5]) [s⁻¹] | self-cleavage kobs at 10000 uM GlcN6P (glucosamine-6-phosphate [6]) [s⁻¹] | KM (glucosamine-6-phosphate [7]) [µM]
C11U A14C C70U | 0.000322 ± 0.00016 | – | – | 0.000221 ± 4.6e-05 | 0.000599 ± 0.00016 | 0.000224 ± 6.8e-05 | –
C11U C70U | 0.000987 ± 0.00026 | 5.88e-05 ± 6.9e-06 | 0.000165 ± 2.1e-05 | 0.000397 ± 3.7e-05 | 0.000735 ± 9.1e-05 | 0.00165 ± 0.00027 | 772 ± 320
A12C G44A | 0.000291 ± 2.6e-05 | – | – | 8.35e-05 ± 1.2e-05 | 0.000204 ± 4e-05 | 0.00024 ± 3.8e-05 | 1580 ± 270
A12C G44C | 4.97e-05 ± 2.4e-06 | – | < 1e-05 | – | – | 3.51e-05 ± 7.6e-06 | 4150 ± 610
C11A U55A | 0.000149 ± 2.2e-05 | – | – | 0.000125 ± 4e-05 | 0.000203 ± 4.1e-05 | 0.000135 ± 1.4e-05 | –
C11A U55G | 0.000167 ± 5.3e-05 | – | – | 3.28e-05 ± 1.1e-05 | 0.000159 ± 2.4e-05 | 0.000125 ± 2.1e-05 | –
G9U C71U | < 1e-05 | < 1e-05 | < 1e-05 | < 1e-05 | – | < 1e-05 | –
A12C A48G | 5.38e-05 ± 6.8e-06 | – | – | – | 4.26e-05 ± 1.2e-05 | 4.66e-05 ± 7.1e-06 | –
A12C A48U | 0.000191 ± 4.1e-06 | – | – | 3.34e-05 ± 9.3e-06 | 9.1e-05 ± 1.6e-05 | 0.000147 ± 1.6e-05 | 2890 ± 150
C10G C11U C67G | 3.06e-05 ± 8.7e-06 | – | – | 5.14e-05 ± 2.4e-05 | – | – | –
C10U U31G | 2.34e-05 ± 1.5e-06 | < 1e-05 | – | – | – | – | 552 ± 200
C11A G60C | < 1e-05 | – | < 1e-05 | – | – | – | –
C11A U65G | 3.43e-05 ± 4.3e-07 | < 1e-05 | – | < 1e-05 | – | 3.18e-05 ± 1.3e-05 | 777 ± 84
C11U C68U | 0.000418 ± 5.2e-05 | – | 6.59e-05 ± 1.1e-05 | 0.000135 ± 1.7e-05 | 0.000329 ± 3.1e-05 | 0.00036 ± 3.9e-05 | 1070 ± 290
C10U C34A C50A G51U C70A | 5.4e-05 ± 1.3e-05 | – | – | – | – | 7.55e-05 ± 2.9e-05 | –
G9C G38C C67A U69C | < 1e-05 | – | – | – | – | – | –
G7C C50G | 1.12e-05 ± 2.4e-06 | – | – | – | – | – | –
A12C C67U | 0.00763 ± 0.0029 | 0.000156 ± 1.3e-05 | 0.000508 ± 5.5e-05 | 0.00137 ± 0.0002 | 0.00322 ± 0.00048 | 0.00923 ± 0.0012 | 2210 ± 1000
C10U C70A | 2.4e-05 ± 6e-06 | – | – | – | 3.1e-05 ± 1.5e-05 | – | –
